Test results: article PMC8041799, “Reovirus directly engages integrin to recruit clathrin for entry into host cells” (Nature Communications, 2021)

Columns and labels:
α2β1 integrin [1] = target: α2β1 integrin (UniProt P17301); assay: single-virus force spectroscopy (FD-curve-based AFM); virus particle on the AFM tip through a PEG27 linker; α2β1 integrin coupled by NHS/EDC to a gold surface; virion-storage buffer (150 mM NaCl, 15 mM MgCl2, 10 mM Tris pH 7.4) with 2 mM Mn2+; ~25 °C; koff from a Bell-Evans fit, kon from BF against contact time, KD = koff/kon
α2β1 integrin [2] = target: α2β1 integrin (UniProt P17301); assay: single-virus force spectroscopy (FD-curve-based AFM); as a1 but 15 mM Mg2+ of the virion-storage buffer as only divalent cation
[3] = target: β1 integrin on living Lec2 cells (Chinese hamster (endogenous in Lec2)); assay: single-virus force spectroscopy (FD-curve-based AFM); virion on the AFM tip; living Lec2 cells, PeakForce QNM mode, cell culture conditions; 0.5 mM Mn2+
α2β1 integrin [4] = target: α2β1 integrin (UniProt P17301); assay: BLI; as a11, virion-storage buffer (15 mM Mg2+) without further cation
[5] = target: β1 integrin on living Lec2 cells (Chinese hamster (endogenous in Lec2)); assay: single-virus force spectroscopy (FD-curve-based AFM); virion on the AFM tip; living Lec2 cells, PeakForce QNM mode; with Ca2+ (concentration on cells not stated)
α2β1 integrin [6] = target: α2β1 integrin (UniProt P17301); assay: single-virus force spectroscopy (FD-curve-based AFM); as a1 but with 2 mM Ca2+ instead of Mn2+
[7] = target: β1 integrin on living Lec2 cells (Chinese hamster (endogenous in Lec2)); assay: single-virus force spectroscopy (FD-curve-based AFM); virion on the AFM tip; living Lec2 cells, PeakForce QNM mode; 0.5 mM Mg2+
α2β1 integrin [8] = target: α2β1 integrin (UniProt P17301); assay: BLI; as a11, virion-storage buffer with 2 mM Ca2+
α2β1 integrin [9] = target: α2β1 integrin (UniProt P17301); assay: BLI; α2β1 integrin immobilised on amine-reactive (AR2G) biosensors; T3SA+ virus ~10^13 particles/mL (16 nM in the fit) in virion-storage buffer with 2 mM Mn2+; room temperature; BLItz
α2β1 integrin [10] = target: α2β1 integrin (UniProt P17301); assay: single-virus force spectroscopy (FD-curve-based AFM); as a1 (Mn2+), with 1 mM Neu5Ac
α2β1 integrin [11] = target: T1, α2β1 integrin (UniProt P17301 30-1132; P05556 21-728); assay: single-virus force spectroscopy (FD-curve-based AFM); virus particle on the AFM tip through a PEG27 linker; α2β1 integrin coupled by NHS/EDC to a gold surface; virion-storage buffer (150 mM NaCl, 15 mM MgCl2, 10 mM Tris pH 7.4) with 2 mM Mn2+; ~25 °C; koff from a Bell-Evans fit, kon from BF against contact time, KD = koff/kon; conditions: both partners purified
T1 construct: integrin α2 subunit; integrin β1 subunit; No catalogue number printed; The vendor's recombinant α2β1 is, as far as I recall, the human extracellular domains joined by acidic and basic tails; Coupled through amines (NHS/EDC) to gold surfaces or AR2G biosensors; also called α2β1 integrins; β1 integrins; source: bought: R&D Systems
T1 sequence (P17301 30-1132, chain 1 of 2): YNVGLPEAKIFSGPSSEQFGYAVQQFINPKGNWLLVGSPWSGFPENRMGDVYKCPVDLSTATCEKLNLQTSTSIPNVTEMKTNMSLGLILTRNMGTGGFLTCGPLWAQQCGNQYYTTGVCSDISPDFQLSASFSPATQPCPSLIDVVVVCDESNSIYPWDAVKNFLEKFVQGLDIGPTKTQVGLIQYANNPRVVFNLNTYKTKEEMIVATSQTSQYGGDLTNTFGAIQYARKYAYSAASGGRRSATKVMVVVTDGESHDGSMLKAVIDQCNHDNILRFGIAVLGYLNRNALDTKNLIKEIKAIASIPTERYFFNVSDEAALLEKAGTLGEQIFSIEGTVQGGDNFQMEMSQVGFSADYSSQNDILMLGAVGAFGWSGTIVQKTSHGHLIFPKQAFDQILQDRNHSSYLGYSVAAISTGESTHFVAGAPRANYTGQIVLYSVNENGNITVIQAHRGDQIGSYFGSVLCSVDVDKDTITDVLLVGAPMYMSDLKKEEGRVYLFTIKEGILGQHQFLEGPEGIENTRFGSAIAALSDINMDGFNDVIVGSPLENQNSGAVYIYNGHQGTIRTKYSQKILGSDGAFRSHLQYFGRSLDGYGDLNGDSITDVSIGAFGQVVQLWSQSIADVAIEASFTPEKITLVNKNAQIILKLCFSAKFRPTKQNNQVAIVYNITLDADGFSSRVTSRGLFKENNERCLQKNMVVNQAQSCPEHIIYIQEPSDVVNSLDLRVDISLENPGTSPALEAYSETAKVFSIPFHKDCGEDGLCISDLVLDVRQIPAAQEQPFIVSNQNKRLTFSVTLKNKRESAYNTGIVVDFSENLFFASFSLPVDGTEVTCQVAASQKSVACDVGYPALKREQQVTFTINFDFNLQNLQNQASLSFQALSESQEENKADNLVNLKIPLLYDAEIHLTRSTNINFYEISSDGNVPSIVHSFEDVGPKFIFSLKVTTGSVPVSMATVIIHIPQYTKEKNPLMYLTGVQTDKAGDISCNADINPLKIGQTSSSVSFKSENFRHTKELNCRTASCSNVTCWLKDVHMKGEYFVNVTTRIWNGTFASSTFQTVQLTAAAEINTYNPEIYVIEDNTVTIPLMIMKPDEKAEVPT
T1 sequence (P05556 21-728, chain 2 of 2): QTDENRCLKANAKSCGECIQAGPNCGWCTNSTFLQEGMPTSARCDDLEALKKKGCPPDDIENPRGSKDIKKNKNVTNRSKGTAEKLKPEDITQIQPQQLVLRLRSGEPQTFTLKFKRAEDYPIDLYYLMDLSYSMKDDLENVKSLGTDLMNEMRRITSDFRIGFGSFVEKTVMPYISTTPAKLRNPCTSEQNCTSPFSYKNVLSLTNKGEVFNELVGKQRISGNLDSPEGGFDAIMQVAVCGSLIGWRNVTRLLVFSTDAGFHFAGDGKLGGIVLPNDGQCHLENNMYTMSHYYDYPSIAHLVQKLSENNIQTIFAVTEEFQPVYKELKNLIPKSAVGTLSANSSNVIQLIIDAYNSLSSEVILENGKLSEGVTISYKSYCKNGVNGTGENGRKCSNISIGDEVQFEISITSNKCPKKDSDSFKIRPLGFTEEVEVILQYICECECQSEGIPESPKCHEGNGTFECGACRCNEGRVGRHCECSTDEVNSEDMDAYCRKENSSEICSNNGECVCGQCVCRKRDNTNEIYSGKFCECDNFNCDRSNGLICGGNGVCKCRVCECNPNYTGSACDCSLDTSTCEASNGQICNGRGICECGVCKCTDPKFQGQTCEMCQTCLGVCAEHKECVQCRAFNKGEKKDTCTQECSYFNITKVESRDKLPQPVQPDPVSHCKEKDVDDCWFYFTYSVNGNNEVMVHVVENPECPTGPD

Sequence of α2β1 integrin (UniProt P17301) (P17301 30-1132, chain 1 of 2): as the sequence (P17301 30-1132, chain 1 of 2) above
Sequence of α2β1 integrin (UniProt P17301) (P05556 21-728, chain 2 of 2, further chain): as the sequence (P05556 21-728, chain 2 of 2) above

T3SA+ infectious subvirion particle (ISVP) (from UniProt P03528 1-455; P11077 1-708) (complex)
BF (binding frequency) (α2β1 integrin [1]): 4%
Kd (α2β1 integrin [1]): 105 nM
koff (α2β1 integrin [1]): 0.59 s⁻¹
kon (α2β1 integrin [1]): 5.62e+06 M⁻¹ s⁻¹

reovirus strain T3SA+ virion (from UniProt P03528 1-455; P11077 1-708; P07939 1-365) (complex)
BF (binding frequency) (α2β1 integrin [2]): 8%
Kd (α2β1 integrin [2]): 548 nM
koff (α2β1 integrin [2]): 2.1 s⁻¹
kon (α2β1 integrin [2]): 3.83e+06 M⁻¹ s⁻¹
BF (binding frequency) [3]: 6%
Kd (α2β1 integrin [4]): 10 nM
BF (binding frequency) [5]: 1%
BF (binding frequency) (α2β1 integrin [6]): 1%
BF (binding frequency) (α2β1 integrin [1]): 19%
Kd (α2β1 integrin [1]): 68 nM
koff (α2β1 integrin [1]): 0.4 s⁻¹
kon (α2β1 integrin [1]): 5.83e+06 M⁻¹ s⁻¹
BF (binding frequency) [7]: 3%
Kd (α2β1 integrin [8]): 85 nM
Kd (α2β1 integrin [9]): 2 nM
BF (binding frequency) with Neu5Ac (α2β1 integrin [10]): 6%
Kd (α2β1 integrin [10]): 116 nM
koff (α2β1 integrin [10]): 0.57 s⁻¹
kon (α2β1 integrin [10]): 4.92e+06 M⁻¹ s⁻¹

reovirus strain T3SA- virion (from UniProt P03528 1-455; P11077 1-708; P07939 1-365) (complex)
BF (binding frequency) (α2β1 integrin [1]): 7%
Kd (α2β1 integrin [1]): 103 nM
koff (α2β1 integrin [1]): 0.58 s⁻¹
kon (α2β1 integrin [1]): 5.62e+06 M⁻¹ s⁻¹

B1: T3SA+ core (complex)
chain: MANVWGVRLADSLSSPTIETRTRHYTLRDFCSDLDAVAGKEPWRPLRNQRTNDIVAVQLFRPLQGLVLDTQFYGFPGIFSEWEQFIKEKLRVLKYEVLRIYPISNYNHERVNVFVANALVGAFLSNQAFYDLLPLLVINDTMINDLLGTGAALSQFFQSHGEVLEVAAGRKYLQMKNYSNDDDDPPLFAKDLSDYAKAFYSDTFETLDRFFWTHDSSAGVLVHYDKPTNGNHYILGTLTQMVSAPPHIINATDALLLESCLEQFAANVRARPAQPVARLDQCYHLRWGAQYVGEDSLTYRLGVLSLLATNGYQLARPIPKQLTNRWLSSFVSQVMSDGVNETPLWPQERYVQIAYDSPSVVDGATHYGYVRRNQLRLGMRVSALQSLSDTPAPIQWLPQYTIEQAAVDEGDLMVSRLTQLPLRPDYGSIWVGDALSYYVDYNRSHRVVLSSELPQLPDTYFDGDEQYGRSLFSLARKIGDRSLIKDTAVLKHAYQAIDPNTGKEYLRAGQSVAYFGASAGHSGADQPLVIEPWTQGKISGVPPPSSVRQFGYDVAKGAIVDLARPFPSGDYQFVYSDVDQVVDGHDDLSISSGLVESLLDSCMHATSPGGSFVMKINFPTRTVWHYIEQKILPNITSYMLIKPFVTNNVELFFVAFGVHQQSALTWTSGVYFFLVDHFYRYETLSTISRQLPSFGYVDDGSSVTGIEMISLENPGFSNMTQAARVGISGLCANVGNARKLISIHESHGARVLTITSRRSPASARRKARLRYLPLVDPRSLEVQARTILPSNPVLFDNVNGASPHVCLTMMYNFEVSSAVYDGDVVLDLGTGPEAKILELIPPTSPVTCVDIRPTAQPSGCWNVRTTFLELDYLSDGWITGIRGDIVTCMLSLGAAAAGKSMTFDAAFQQLVKVLTKSTANVLLIQVNCPTDVIRTIKGYLEIDQTNKRYRFPKFGRDEPYSDMDSLERICRAAWPNCSITWVPLSYDLRWTKLALLESTTLSSASVRIAELMYKYMPVMRIDIHGLPMEKQGNFIVGQNCSLTIPGFNAQDVFNCYFNSALAFSTEDVNSAMIPQVTAQFDANKGEWSLDMVFSDAGIYTMQALVGSNANPVSLGSFVVDSPDVDITDAWPAQLDFTIAGTDVDITVNPYYRLMAFVRIDGQWQIANPDKFQFFSSSTGTLVMNVKLDIADRYLLYYIRDVQSRDVGFYIQHPLQLLNTITLPTNEDLFLSAPDMREWAVKESGNTICILNSQGFVPPQDWDVLTDTISWSPSLPTYVVPPGDYTLTPL
Kd (α2β1 integrin [11]): 741 ± 317 nM
koff (α2β1 integrin [11]): 1.52 ± 0.4 s⁻¹
kon (α2β1 integrin [11]): 2.05e+06 ± 300000 M⁻¹ s⁻¹
